Article PMC9426602, “The Native Orthobunyavirus Ribonucleoprotein Possesses a Helical Architecture” (mBio, 2022)

Target: the molecule itself
Test: negative staining EM; purified native RNPs, untreated, in reduced-salt TNE (25 mM NaCl), 1% uranyl acetate

B1: Bunyamwera virus (BUNV) nucleocapsid protein (NP), as it stands in native ribonucleoproteins (RNPs) purified from virions (natural protein)
chain: MIELEFHDVAANTSSTFDPEVAYANFKRVHTTGLSYDHIRIFYIKGREIKTSLAKRSEWEVTLNLGGWKITVYNTNFPGNRNNPVPDDGLTLHRLSGFLARYLLEKMLKVSEPEKLIIKSKIINPLAEKNGITWNDGEEVYLSFFPGSEMFLGTFRFYPLAIGIYKVQRKEMEPKYLEKTMRQRYMGLEAATWTVSKLTEVQSALTVVSSLGWKKTNVSAAARDFLAKFGINM
notes: the atomic model started from the BUNV NP crystal structure PDB 3ZLA; Many copies of NP form a helical filament around each RNA segment (about 3.4 NPs per turn); the number of copies depends on the segment; The viral RNA is part of the assembly; also called BUNV NP; source: native RNPs from BUNV virions grown in BHK-21 cells; virions disrupted by freeze/thaw, RNPs purified on a 10 to 25% OptiPrep …
binding result: binds
